The values that follow come from publication PMC12572175 (2025).

In the assay the target is Protein A domain D (Staphylococcus aureus). As to the kind of experiment: BLI. For orientation: Biolayer interferometry detects binding as a change in optical thickness at a sensor tip.

B1: n501 T77A (antibody)
chain: EVQLVESGGGLVQPGGSLRLSCAASDFTFRNYEMSWVRQAPGKGLEWVSSISGSGGSTYYAHSLKGRFAISRDNSKNTLYLQMNSLRAEDTAIYYCARLRDGFNNGFDYWGQGTLVTVSS
In general, Kd refers to the free concentration of one partner at which half of the binding sites on the other are occupied at equilibrium, for simple one-to-one binding. The low end stands for a tighter complex, the high end for a looser complex. Take B1: the Kd amounted to 324 nM.

B2: n501 N92A (antibody)
chain: EVQLVESGGGLVQPGGSLRLSCAASDFTFRNYEMSWVRQAPGKGLEWVSSISGSGGSTYYAHSLKGRFTISRDNSKNTLYLQMASLRAEDTAIYYCARLRDGFNNGFDYWGQGTLVTVSS
Turning to B2, the Kd amounted to 328 nM.
